According to patent US20240368239A1, “Novel bispecific protein and use thereof” (SL METAGEN, priority 2020, published 2024):
“Also recorded” adds a separate entry of the source.

How the values were obtained:
[1] = In vivo pharmacokinetics profile after subcutaneous administration (GLP-1-Fc ELISA and GLP-2-Fc ELISA); set-up: species or system male SD (Sprague Dawley) rats; details: rat, 1 mg/kg SC
Procedure: First, each protein was administered to 3 male SD (Sprague Dawley) rats per group at a dose of 1 mg/kg by subcutaneous (SC) route. Before injection and after 0.5, 1, 5, 10, 24, 48, 72, 120, and 168 hours after the injection, blood was collected and stored at room temperature for 30 minutes to aggregate. After centrifuging the aggregated blood at 3,000 rpm for 10 minutes, serum of each sample was collected and stored in a cryogenic freezer. Analyses were performed by an assay designed to specifically detect the GLP-1 site and Fc in the administered protein (GLP-1-Fc ELISA) and an assay designed to specifically detect the GLP-2 site and Fc in the administered protein (GLP-2-Fc ELISA). Specifically, a method of loading a biological sample on a plate coated with an antibody that binds to mouse-derived human immunoglobulin G4 (IgG4) to detect the target protein using a biotinylated anti-GLP-1 antibody (GLP-1-Fc ELISA), and a method of loading a biological sample on a plate coated with a monoclonal antibody that specifically reacts with GLP-2, to detect the target protein using a secondary antibody having HRP conjugated to mouse-derived human immunoglobulin G4 (IgG4) (GLP-2-Fc ELISA) were used. The obtained and prepared serum samples were loaded with appropriate dilutions to be analyzed at a position on a straight line of the standard curve.

[2] = tested on: B6 normal mice; assay: Fluorescence spectrometry tissue distribution of Cy5.5-labelled substances; format: in vivo
Procedure: Next, the present inventors performed an experiment in B6 normal mice in order to observe the distribution in each tissue and organ according to the administration of a bispecific fusion protein according to an embodiment of the present invention. Cy5.5 was used as a fluorophore for tracking the distribution after administration of each substance. Buffer exchange was performed for each substance to be administered, MG12-1, MG12-4, and GLP-1Fc homodimer with boric acid buffer (pH 8.5), and with reference to the protocol of the Cy5.5 labeling kit (GE, #PA15605) were allowed to react with an appropriate amount of Cy5.5 overnight under refrigeration conditions. Unreacted Cy5.5 in the reaction-completed substance was removed through the PBS substitution process, and whether Cy5.5 was reacted well was confirmed through the final SDS-PAGE. Each administered substance was diluted with 10% DMSO/PBS to have the same fluorescence intensity using an ELISA plate reader capable of measuring fluorescence intensity before being administered.

[3] = target: GLP-1 receptor (Homo sapiens, UniProt P43220); details: GLP-1 activity
Procedure: After culturing the cells in a 37° C., 5% CO2 incubator for about 16 hours, the cells were treated with 20 μL/well of a test solution of various concentrations to be evaluated and allowed to react in a 37° C., 5% CO2 incubator for 5 hours. After the reaction was complete, the plate was treated with Bright-Glo™ assay reagent at 100 μL/well, and then was allowed react at room temperature for 2 minutes. After the reaction was completed, the plate was inserted into a Luminometer and the degree of bioluminescence was measured.

[4] = tested on: Balb/c-nude mice; assay: PET-MRI tissue distribution of Zr89-labelled proteins; format: in vivo; details: Zr89 label, SC
Excerpt: Next, the present inventors performed an experiment in Balb/c-nude mice in order to observe the distribution in each tissue organ following the administration of a substance. Zr^89 was used as a radiotracer for tracking the distribution after administration of each substance. Each substance to be administered was labeled with Zr^89 as a reaction condition and a chelator selected through a preliminary test. The labeled Zr^89-protein was purified using a PD-10 column, and Zr^89 labeling efficiency and purity were confirmed using Radio TLC and SEC-HPLC. The labeling efficiency of the Zr^89-protein of 90% or more and the purity of 80% or more were determined to be appropriate, and the labeled protein was administered subcutaneously at 0.2 mCi/0.2 cc. Each administration substance was administered to three animals and static images for 20 minutes were obtained using PET-MRI at 1 hour, 6 hours, 24 hours, 48 hours, and 168 hours after injection. Through image analysis, the distribution of drugs as a function of time in the liver, small intestine, and large intestine was expressed as SUV (Standardized Uptake Value) and comparatively analyzed.

[5] = tested on: B6 normal mice; assay: Small intestine weight and body weight (GLP-1-Fc homodimer, GLP-2-Fc homodimer, MG12-1, MG12-4); format: in vivo; details: SC twice a week, 4 doses; homodimers 10 nmol/kg, MG12 20 nmol/kg
Excerpt: In addition, the present inventors conducted the same experiment as above while only varying the administered substance, in order to confirm whether the bispecific fusion proteins (MG12-1 and MG12-4) designed in a form other than MG12-5 also increase the small intestine weight and energy absorption rate of experimental animals. Specifically, PBS, 10 nmol/kg GLP-1-Fc homodimer, 10 nmol/kg GLP-2-Fc homodimer, 20 nmol/kg MG12-1, and 20 nmol/kg MG12-4 were subcutaneously administered. The drug was administered twice a week for a total of 4 times for 2 weeks. After 4 doses, the body weight was measured before autopsy, and the small intestine was excised after the autopsy and weighed. After the autopsy, the entire gastrointestinal tract of the mouse was separated, the mesentery and the pancreas were excised, and the area where the ileum and the cecum meet was cut to separate the small intestine and the large intestine. The separated small intestine was perfused and washed with 10% neutral formalin to remove the contents, and was weighed after removing the neutral formalin with an absorbent towel.

[6] = 24 hours after administration, Cy5.5 label

GLP-1 receptor, sequence (P43220 24-463, species assumed): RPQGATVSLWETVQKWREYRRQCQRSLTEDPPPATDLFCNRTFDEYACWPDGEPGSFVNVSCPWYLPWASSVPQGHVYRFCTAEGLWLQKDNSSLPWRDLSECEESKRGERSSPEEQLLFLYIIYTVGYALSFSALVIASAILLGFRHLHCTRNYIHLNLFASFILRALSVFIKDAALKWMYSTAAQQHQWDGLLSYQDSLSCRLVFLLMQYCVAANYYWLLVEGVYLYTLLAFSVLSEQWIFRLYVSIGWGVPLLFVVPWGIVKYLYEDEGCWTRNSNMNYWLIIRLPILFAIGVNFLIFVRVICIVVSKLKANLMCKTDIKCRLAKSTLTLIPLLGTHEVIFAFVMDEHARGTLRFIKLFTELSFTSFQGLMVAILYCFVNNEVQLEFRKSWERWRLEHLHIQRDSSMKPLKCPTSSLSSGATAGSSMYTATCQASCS

B1: MG12-1: Knob/hole Fc heterodimer: GLP-1 (SEQ 1), glycan linker, first fusion protein SEQ 24; GLP-2 (SEQ 17), second fusion protein SEQ 32 (protein)
chain 1: HGEGTFTSDVSSYLEGQAAKEFIAWLVKGRGGGGGSGGGGSGGGGSAKNTTAPATTRNTTRGGEEKKKEKEKEEQEERTHTCPPCPSHTQPLGVFLFPPKPKDTLMISRTPEVTCVVVDVSQEDPEVQFNWYVDGVEVHNAKTKPREEQFNSTYRVVSVLTVLHQDWLNGKEYKCKVSNKGLPSSIEKTISKAKGQPREPQVYTLPPCQEEMTKNQVSLWCLVKGFYPSDIAVEWESNGQPENNYKTTPPVLDSDGSFFLYSRLTVDKSRWQEGNVFSCSVMHEALHNHYTQKSLSLSLGK
chain 2: HGDGSFSDEMNTILDNLAARDFINWLIQTKITDGGGGSGGGGSGGGGSEKEKEEQEERTHTCPPCPSHTQPLGVFLFPPKPKDTLMISRTPEVTCVVVDVSQEDPEVQFNWYVDGVEVHNAKTKPREEQFNSTYRVVSVLTVLHQDWLNGKEYKCKVSNKGLPSSIEKTISKAKGQPREPQVCTLPPSQEEMTKNQVSLSCAVKGFYPSDIAVEWESNGQPENNYKTTPPVLDSDGSFFLVSRLTVDKSRWQEGNVFSCSVMHEALHNHYTQKSLSLSLGK
B1 showed an AUClast ([1]; GLP-1-Fc ELISA (Table 5)) of 13.9198 ± 0.8249 µg·h/mL, a Cmax ([1]; GLP-1-Fc ELISA (Table 5)) of 0.4422 ± 0.0208 µg/mL and a Half-life ([1]; GLP-1-Fc ELISA (Table 5)) of 16.5 ± 6.3 h. It also gave a Tmax ([1]; GLP-1-Fc ELISA (Table 5)) of 10 h, an AUClast ([1]; GLP-2-Fc ELISA (Table 6)) of 78.639 ± 11.2053 µg·h/mL and a Cmax ([1]; GLP-2-Fc ELISA (Table 6)) of 1.1367 ± 0.261 µg/mL. For the same molecule, the Half-life ([1]; GLP-2-Fc ELISA (Table 6)) was 43.7 ± 1.8 h, the Tmax ([1]; GLP-2-Fc ELISA (Table 6)) was 24.0 ± 0.0 h and the “Average fluorescence intensity, Brain” value [2, 6] was 489. For the same molecule, the “Average fluorescence intensity, Large intestine” value [2, 6] was 3702, the “Average fluorescence intensity, Small intestine” value [2, 6] was 7320 and the “distribution in the small intestine and the large intestine” value ([2]; compared to GLP-1-Fc homodimer) was “larger”. For the same molecule, the “activity reduced due to glycosylation” value [3] was “about 11 times”, the “distribution to the liver (SUV)” value [4] was “reduced or showed no difference compared to Fc” and the “distribution to the small intestine and large intestine (SUV)” value [4] was “significantly high compared to that of GLP-1-Fc homodimer and GLP-2-Fc homodimer”. The small intestine weight [5] was “greater increase in small intestine weight than the GLP-2-Fc homodimer administered group; also recorded: superior effect of increasing small intestine weight” and the “weight change before autopsy (body weight)” value [5] was “numerical increase in body weight”.
